According to article PMC3957475 (Biochemical Journal, 2014):

T1: Biotinylated GAK (cyclin G-associated kinase) (Homo sapiens, biotin (biotinylated; site and way not stated))
T1 construct: Captured on a CAP chip with the Biotin CAPture kit; the general purification removes the His6 tag
T1 chain: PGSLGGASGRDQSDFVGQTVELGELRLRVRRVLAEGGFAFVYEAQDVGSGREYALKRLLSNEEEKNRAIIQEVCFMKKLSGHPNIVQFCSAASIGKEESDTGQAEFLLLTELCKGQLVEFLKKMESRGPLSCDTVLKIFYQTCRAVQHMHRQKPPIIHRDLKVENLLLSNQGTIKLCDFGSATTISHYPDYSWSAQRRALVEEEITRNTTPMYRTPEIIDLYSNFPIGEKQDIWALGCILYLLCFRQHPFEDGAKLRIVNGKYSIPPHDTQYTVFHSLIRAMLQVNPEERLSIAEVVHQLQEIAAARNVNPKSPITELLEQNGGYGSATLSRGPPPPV


What was measured:
[1] = molecular target: T1, Biotinylated GAK (cyclin G-associated …); assay: SPR; same SPR experiment as the kinetic fit (biotinylated GAK on CAP chip, 25°C, 50 mM Tris/HCl pH 7.4, 150 mM NaCl); steady-state analysis; conditions: both partners purified
[2] = molecular target: T1, Biotinylated GAK (cyclin G-associated …); assay: SPR; Biacore 3000, 25°C, 30 μl/min; biotinylated GAK captured on CAP chip (60-120 RU); nanobodies injected in serial 2-fold dilutions for 3 min; 50 mM Tris/HCl pH 7.4, 150 mM NaCl, 50 μM EDTA, 0.005% Tween 20; kinetic global fit, 1:1 Langmuir model; conditions: both partners purified

Row | Binder | Kd [1] [nM] | Kd [2] [nM]
1 | NbGAK_4 (VHH, about 120 amino acids; structures of the complex with GAK deposited here (among PDB 4C57, 4C58, 4C59); From a GAK-immunised dromedary, phage display vector pMECS, which adds an HA and a His tag) VHH: QVQLQESGGGSVQAGGSLRLSCGASEYTSRMGWFRQAPGAEREGVACIHRQSNLSYYSDSVRGRFTISQDNAKTTAFLLMSSLKPEDTAIYYCATTTDCAAFVERATAITAGQGTQVTVSS | 12.8 | 10.3
2 | NbGAK_1 (VHH, about 120 amino acids; structure of the complex with GAK deposited here (one of PDB 4C57, 4C58, 4C59); From a GAK-immunised dromedary, phage display vector pMECS, which adds an HA and a His tag) VHH: QVQLQESGGGLVQPGGSLRLSCSASGFKFNDSYMSWVRRVPGKGLEWVAGIWEDSSAAHYRDSVKGRFTISRDNAKNMLYLQMSSLKSDDTGLYYCVRRGYSGDYRPINNPSSQGTQVTVSS | 60.3 | 59.9
